Laboratory results as given in the supplement of paper PMC9732359.
± gives the uncertainty stated by the source.

Assay: protein stability index of a GFP-peptide fusion (yeast GPS) (PSI 1-4); higher = more stable; sorted into four equal gates, so the index is relative within each strain
How it was run: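 Plasmids in a pooled yeast library fused tiled 17-residue yeast protein peptides downstream of GFP and also expressed Cherry. Mid-log cultures grown without leucine were sorted into four equal gates by GFP/Cherry fluorescence ratio. Each gate's plasmids were PCR-amplified and Illumina-sequenced, and reads were matched to strains by barcodes. The protein stability index is derived by multiplying each gate's read frequency by its gate number and summing the results.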

Sequence | protein stability index (doa10∆) | protein stability index (pdr5∆) | protein stability index (san1∆) | protein stability index (ubr1∆)
LKTADNRDRSFQLLEPL [PGD1] | 3.29 ± 0.058 | 3.38 ± 0.086 | 3.38 ± 0.039 | 3.18 ± 0.074
NLATKGMVKLNEYPVAD [REC8] | 2.85 ± 0.071 | 1.52 ± 0.05 | 1.46 ± 0.074 | 1.57 ± 0.058
FLPRKRAASIRARVKAF [RPL3] | 1.16 ± 0.045 | 1.18 ± 0.064 | 1.15 ± 0.11 | 1.17 ± 0.051
LMMVEKVPDSTYDMVGG [RPT6] | 2.6 ± 0.081 | 2.98 ± 0.071 | 2.84 ± 0.069 | 3.01 ± 0.068
TDDADDHINWEHIKQDY [NSL1] | 3.4 ± 0.1 | 3.4 ± 0.12 | 3.27 ± 0.13 | 3.4 ± 0.082
AQKCGWTIPHKKWNDLK [SIR2] | 3.25 ± 0.057 | 3.26 ± 0.086 | 3.26 ± 0.058 | 2.94 ± 0.038
GNIDTKNNILGSNVLKS [RRP43] | 2.86 ± 0.039 | 2.97 ± 0.044 | 2.92 ± 0.032 | 3.041 ± 0.027
NEKEQLSFINPKTGKVE [SEC65] | 2.98 ± 0.11 | 2.89 ± 0.11 | 2.98 ± 0.064 | 2.99 ± 0.059
KESIVLPTVGFDFIKDN [YOR098C/NUP1] | 2.39 ± 0.14 | 2.65 ± 0.11 | 3.05 ± 0.16 | 2.83 ± 0.07
EDFEHNNLSSMNLDFDI [MCD1] | 2.76 ± 0.053 | 3.24 ± 0.061 | 3.24 ± 0.04 | 3.24 ± 0.033
YGIFGEGVEYSFLHVDD [POP8] | 2.25 ± 0.084 | 2.31 ± 0.072 | 1.92 ± 0.12 | 2.71 ± 0.049
TSYKKWSFDLPEMSNLY [PRP8] | 2.6 ± 0.055 | 2.52 ± 0.05 | 2.26 ± 0.058 | 2.13 ± 0.044
LAHVDQIVDIRNKRAVQ [YJL039C/NUP192] | 2.35 ± 0.13 | 2.55 ± 0.12 | 2.76 ± 0.12 | 2.71 ± 0.13
QRDFRKHGAVHMSTYLK [RPL21B] | 2.65 ± 0.048 | 2.42 ± 0.042 | 2.48 ± 0.054 | 2.8 ± 0.038
IEYCSAQPSVQSSFAGT [FAS2] | 2.72 ± 0.11 | 3.07 ± 0.094 | 2.77 ± 0.073 | 2.56 ± 0.059
DLNKENKLLRRKLMEME [YIL149C/MLP2] | 3.41 ± 0.2 | 2.95 ± 0.21 | 3.33 ± 0.11 | –
TRAQYLAFAKLVHSEYL [SRP68] | 1.58 ± 0.08 | 1.87 ± 0.063 | 1.47 ± 0.094 | 1.79 ± 0.052
AIKKKEKLLRHVDSLIE [SRB7] | 3.15 ± 0.094 | 2.88 ± 0.12 | 3.2 ± 0.094 | 3.27 ± 0.1
EQEIENNGLPMKNKAET [ITC1] | 2.81 ± 0.065 | 3.06 ± 0.066 | 3 ± 0.045 | 2.9 ± 0.067
DGLEKAAFNGVTFKDKY [FAS2] | 1.94 ± 0.083 | 1.57 ± 0.096 | 1.85 ± 0.14 | 2.09 ± 0.12
SFSVCKIRCFRYISTLT [IRR1] | 1.61 ± 0.057 | 1.39 ± 0.055 | 1.49 ± 0.11 | 1.31 ± 0.052
SDSEDSDAKEQHQSLSR [ESC2] | 2.81 ± 0.14 | 3.19 ± 0.15 | 3.04 ± 0.084 | 2.52 ± 0.083
FNTFWDEKGNEIKVGKQ [ARP9] | 3.24 ± 0.099 | 2.53 ± 0.089 | 2.88 ± 0.089 | 2.52 ± 0.059
DIFGDSELFDEWFEQNN [ISW2] | 2.36 ± 0.069 | 2.49 ± 0.072 | 1.31 ± 0.15 | 1.63 ± 0.056
CKQFPKLSCIQLNCIDT [SRB8] | 1.54 ± 0.041 | 1.95 ± 0.039 | 1.52 ± 0.043 | 1.66 ± 0.026
LVSSASQQLLEILVTEL [RPN2] | 1.93 ± 0.059 | 2.27 ± 0.058 | 2.16 ± 0.092 | 1.8 ± 0.051
SDESIERLMTWKFKSLI [RRI2] | 2.26 ± 0.048 | 2.36 ± 0.042 | 2.11 ± 0.066 | 2.31 ± 0.031

Sequence | protein stability index (doa10∆) | protein stability index (pdr5∆) | protein stability index (san1∆) | protein stability index (ubr1∆)
PTSPSYSPTSPSYSPTS [RPO21] | 2.59 ± 0.044 | 2.99 ± 0.041 | 2.66 ± 0.04 | 2.85 ± 0.037
STVSANHSNNDIPTIAD [BRN1] | 3.22 ± 0.097 | 3.03 ± 0.093 | 3.02 ± 0.069 | 3.24 ± 0.074
IKPKIALQDKEITSVLS [SNF12] | 2.31 ± 0.082 | 2.39 ± 0.1 | 2.36 ± 0.16 | 2.28 ± 0.093
KPLGLDRYGNRYFWLDH [ITC1] | 2.77 ± 0.11 | 3.02 ± 0.13 | 2.85 ± 0.056 | 2.74 ± 0.086
YELEFDTPTSGKHNLTI [BRR2] | 3.1 ± 0.068 | 3.04 ± 0.076 | 3.18 ± 0.061 | 3.23 ± 0.065
IAASYHYPEIEDLVDRI [RPP0] | – | 1.89 ± 0.16 | – | –
SETDLNDIPLGSGQPDN [SRB8] | 3.09 ± 0.11 | 3.12 ± 0.069 | 3.06 ± 0.07 | 2.87 ± 0.056
NKRLSRGKKGLKKKVVD [RPS1B] | – | 3.44 ± 0.15 | 2.75 ± 0.24 | 3.38 ± 0.14
IDIINKLILHAIHIFES [YML103C/NUP188] | 1.5 ± 0.053 | 1.56 ± 0.058 | 1.42 ± 0.065 | 1.38 ± 0.034
GGGHVSQVYAIRQAIAK [RPS16A] | 2.63 ± 0.05 | 2.85 ± 0.045 | 2.75 ± 0.053 | 2.62 ± 0.043
VSKFYDKINQLSVVKYL [RPN9] | 2.25 ± 0.12 | 1.75 ± 0.083 | 1.31 ± 0.11 | 1.7 ± 0.083
SKLPDPERWLPLRDRST [SRP72] | 2.09 ± 0.067 | 2.91 ± 0.068 | 2.55 ± 0.077 | 2.46 ± 0.058
LLPQWDDDQIESLKKSP [ARP9] | 3.17 ± 0.085 | 3.15 ± 0.061 | 3.1 ± 0.051 | 3.12 ± 0.052
LDVDPAKRIRVSHHATT [RPB2] | 3.02 ± 0.06 | 3.04 ± 0.06 | 2.79 ± 0.082 | 3 ± 0.044
QQQQQQQNPKFLQSQRQ [SWI1] | 2.84 ± 0.048 | 2.82 ± 0.052 | 2.79 ± 0.045 | 3.25 ± 0.064
EDITEPKPDKPSGRTRG [ESC2] | 3.07 ± 0.15 | 2.96 ± 0.14 | 3.07 ± 0.11 | 3.26 ± 0.1
RIVNHKTKLWGFKWLNK [LIN1] | 2.87 ± 0.13 | 3.1 ± 0.13 | 2.87 ± 0.3 | 2.88 ± 0.091
KTSCVVEKRIGKIVSQR [RGR1] | 2.76 ± 0.061 | 2.77 ± 0.048 | 3.12 ± 0.045 | 2.85 ± 0.036
DPAHSLNYTVINFKSRE [AAR2] | 3.07 ± 0.054 | 3.1 ± 0.059 | 3.14 ± 0.046 | 3.22 ± 0.037
KGKTPKNAAESSYMGKH [PRP28] | 3.18 ± 0.12 | 3.22 ± 0.14 | 2.86 ± 0.16 | 3.33 ± 0.085
TSPTMPDYYVSILSFVD [RPT2] | 2.2 ± 0.048 | 2.31 ± 0.05 | 2.27 ± 0.042 | 2.15 ± 0.041
EIYTVEDRPPEYWAQRK [ISW2] | 3.44 ± 0.23 | 3.14 ± 0.14 | – | 3.31 ± 0.13
GGLRPFGVSFIYAGYDD [PRE9] | 2.44 ± 0.08 | 2.52 ± 0.075 | 2.26 ± 0.11 | 2.27 ± 0.083
IKHKHKKVKLAVLSYYK [RPS31] | 2.23 ± 0.047 | 2.59 ± 0.074 | 2.37 ± 0.073 | 2.25 ± 0.048
EHKTPELISFKERTKSL [YIL149C/MLP2] | 2.85 ± 0.066 | 2.95 ± 0.076 | 2.93 ± 0.076 | 3.22 ± 0.079
TKPFENVEKYPTFVEFI [SNU114] | 2.7 ± 0.23 | 3.02 ± 0.1 | 2.87 ± 0.11 | 2.86 ± 0.11
YYSRITLLRLNELLDLT [RPN5] | 2.61 ± 0.067 | 1.77 ± 0.048 | 2.44 ± 0.065 | 1.97 ± 0.072
